In PMC5531834:

Experiments:
8N-Gag (Δp6) (HIV-1) [1] = assay: FCS Cy5 quenching; settings: 20 mM Tris-HCl pH 7.5, 0.2 M NaCl (varied in salt titrations), 5 mM MgCl2, 1 uM ZnCl2, 0.1 mM PMSF, 1 mM BME, 0.05% Tween 20; 15 nM RNA; overnight 4 C, FCS at …
[2] = system: WT-Gag (HIV-1 Δp6 Gag) (HIV-1); assay: FCS Cy5 quenching; settings: 20 mM Tris-HCl pH 7.5, 0.2 M NaCl (varied in salt titrations), 5 mM MgCl2, 1 uM ZnCl2, 0.1 mM PMSF, 1 mM BME, 0.05% Tween 20; 15 nM RNA; overnight 4 C, FCS at …
8N-Gag (Δp6) (HIV-1) [3] = assay: FCS Cy5 quenching, competition; settings: 20 mM Tris-HCl pH 7.5, 0.2 M NaCl (varied in salt titrations), 5 mM MgCl2, 1 uM ZnCl2, 0.1 mM PMSF, 1 mM BME, 0.05% Tween 20; 15 nM RNA; overnight 4 C, FCS at …
[4] = system: WT-Gag (HIV-1 Δp6 Gag) (HIV-1); assay: FCS Cy5 quenching, competition; settings: 20 mM Tris-HCl pH 7.5, 0.2 M NaCl (varied in salt titrations), 5 mM MgCl2, 1 uM ZnCl2, 0.1 mM PMSF, 1 mM BME, 0.05% Tween 20; 15 nM RNA; overnight 4 C, FCS at …
8N-Gag (Δp6) (HIV-1) [5] = assay: FCS Cy5 quenching; settings: 20 mM Tris-HCl pH 7.5, 0.2 M NaCl (varied in salt titrations), 5 mM MgCl2, 1 uM ZnCl2, 0.1 mM PMSF, 1 mM BME, 0.05% Tween 20; 15 nM RNA; overnight 4 C, FCS at …; remark: listed apart in the source
[6] = biological target: Gag (Human immunodeficiency virus 1) (UniProt O93182); settings: cited from earlier work
[7] = system: WT-Gag (HIV-1 Δp6 Gag) (HIV-1); assay: FCS Cy5 quenching; settings: 20 mM Tris-HCl pH 7.5, 0.2 M NaCl (varied in salt titrations), 5 mM MgCl2, 1 uM ZnCl2, 0.1 mM PMSF, 1 mM BME, 0.05% Tween 20; 15 nM RNA; overnight 4 C, FCS at …; remark: listed apart in the source

Gag, sequence (O93182 2-500): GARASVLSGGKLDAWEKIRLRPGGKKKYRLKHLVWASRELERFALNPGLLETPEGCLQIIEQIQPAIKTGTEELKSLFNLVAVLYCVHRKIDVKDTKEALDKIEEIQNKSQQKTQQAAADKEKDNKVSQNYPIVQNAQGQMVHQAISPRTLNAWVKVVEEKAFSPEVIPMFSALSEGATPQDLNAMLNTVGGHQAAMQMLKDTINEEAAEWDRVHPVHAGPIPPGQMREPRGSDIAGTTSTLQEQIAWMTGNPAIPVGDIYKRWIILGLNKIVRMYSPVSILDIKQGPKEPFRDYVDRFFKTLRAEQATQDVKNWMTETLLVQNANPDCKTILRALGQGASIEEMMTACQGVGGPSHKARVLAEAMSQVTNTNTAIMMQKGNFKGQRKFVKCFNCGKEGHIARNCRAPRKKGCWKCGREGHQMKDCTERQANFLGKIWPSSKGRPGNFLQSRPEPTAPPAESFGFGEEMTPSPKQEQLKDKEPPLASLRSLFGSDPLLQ

Substance	Kd (8N-Gag (Δp6) (HIV-1) [1])	Kd [2]	Kd (8N-Gag (Δp6) (HIV-1) [3])	Kd [4]	Kd (8N-Gag (Δp6) (HIV-1) [5])	Kd [6]	Kd [7]
MoMLV Ψ RNA	59.8 nM	25.9 nM	59 nM	119 nM			
HIV Ψ2 (dimeric HIV-1 Ψ RNA)	43.2 nM	20.3 nM	54.7 nM	37 nM	> 1000 nM		
Gag (from UniProt O93182)						10 µM	
GRPE RNA	145 nM	44.2 nM	154 nM	315 nM	> 1000 nM		
HIV Ψ1 (monomeric HIV-1 Ψ RNA)	60 nM	21.4 nM	60 nM	53.3 nM			26 nM
